Data on one molecule can be found in US9364516B2, “Treatment of fibrosis-related disorders using fibronectin binding proteins and polypeptides” (priority 2010, dated 2016).

One assay deals with Rat aortic SMCs. Kind of assay: Fibronectin and collagen I deposition in cultured SMCs (immunostaining). It counts as cell-based. As to conditions: 500 nM peptide, 3 days, serum containing media. As to the method:
FIGS. 1A-1I depict the effect of pUR4 on fibronectin and collagen I deposition in smooth muscle cells (SMCs). Rat aortic SMCs were grown in serum containing media in the absence (FIGS. 1A-1C) or presence of 500 nM pUR4 (FIGS. 1D-1F) or control III-11C (FIGS. 1G-1I) peptides for 3 days. Cell were fixed, and then incubated with a polyclonal antibody to fibronectin (FIGS. 1A, 1D, and 1G) or collagen I (FIGS. 1B, 1E, and 1H). Bar, 20 μm.
Rat aortic smooth muscle cells (RASM) were obtained from Cell Applications (San Diego, Calif.) and maintained in serum containing media (Cell Applications). SMC were used at passages 4-6.
Previous data has shown that fibronectin regulates the deposition of other proteins into the ECM, including type I collagen (Sottile et al., “Fibronectin Polymerization Regulates the Composition and Stability of Extracellular Matrix Fibrils and Cell-Matrix Adhesions,” Mol. Biol. Cell. 13:3546-3559 (2002), which is hereby incorporated by reference in its entirety). […] However, there was a trend toward decreased fibronectin and collagen I mRNA in the carotid artery of animals treated with pUR4 in comparison with control peptide-treated animals (Table 3).

Another assay has as its target T1, fibrinogen (Homo sapiens, UniProt P02671+P02675+P02679).
T1 construct: purchased Enzyme Research Laboratories (South Bend, Ind.)
T1 sequence (P02671 20-629 limits assumed): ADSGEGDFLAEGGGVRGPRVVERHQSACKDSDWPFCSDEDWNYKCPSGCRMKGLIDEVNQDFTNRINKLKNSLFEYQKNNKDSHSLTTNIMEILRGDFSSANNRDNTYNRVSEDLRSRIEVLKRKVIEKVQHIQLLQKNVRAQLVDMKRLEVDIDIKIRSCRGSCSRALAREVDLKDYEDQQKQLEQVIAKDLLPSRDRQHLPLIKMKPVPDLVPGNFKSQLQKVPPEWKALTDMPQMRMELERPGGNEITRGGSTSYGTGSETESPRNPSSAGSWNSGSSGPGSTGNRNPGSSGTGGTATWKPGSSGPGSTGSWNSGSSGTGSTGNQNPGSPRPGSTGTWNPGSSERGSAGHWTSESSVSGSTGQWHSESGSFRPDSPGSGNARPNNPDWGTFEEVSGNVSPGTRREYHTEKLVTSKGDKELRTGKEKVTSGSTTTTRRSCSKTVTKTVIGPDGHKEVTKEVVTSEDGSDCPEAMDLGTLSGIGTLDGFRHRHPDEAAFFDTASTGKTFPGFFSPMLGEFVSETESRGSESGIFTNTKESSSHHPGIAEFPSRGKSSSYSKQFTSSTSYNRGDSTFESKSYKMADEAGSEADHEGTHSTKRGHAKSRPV
T1 sequence (P02675 31-491): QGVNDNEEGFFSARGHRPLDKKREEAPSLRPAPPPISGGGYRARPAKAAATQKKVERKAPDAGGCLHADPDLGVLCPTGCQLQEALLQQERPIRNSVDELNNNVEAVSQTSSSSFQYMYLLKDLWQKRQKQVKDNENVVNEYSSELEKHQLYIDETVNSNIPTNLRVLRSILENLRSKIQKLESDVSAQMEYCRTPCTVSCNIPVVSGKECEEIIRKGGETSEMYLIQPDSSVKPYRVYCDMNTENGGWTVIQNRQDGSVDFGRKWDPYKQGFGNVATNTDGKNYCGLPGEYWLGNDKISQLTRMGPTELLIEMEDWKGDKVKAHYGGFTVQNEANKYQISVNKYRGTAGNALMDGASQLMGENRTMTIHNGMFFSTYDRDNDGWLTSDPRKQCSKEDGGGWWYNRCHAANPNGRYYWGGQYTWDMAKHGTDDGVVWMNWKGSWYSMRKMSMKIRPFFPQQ
T1 sequence (P02679 27-453): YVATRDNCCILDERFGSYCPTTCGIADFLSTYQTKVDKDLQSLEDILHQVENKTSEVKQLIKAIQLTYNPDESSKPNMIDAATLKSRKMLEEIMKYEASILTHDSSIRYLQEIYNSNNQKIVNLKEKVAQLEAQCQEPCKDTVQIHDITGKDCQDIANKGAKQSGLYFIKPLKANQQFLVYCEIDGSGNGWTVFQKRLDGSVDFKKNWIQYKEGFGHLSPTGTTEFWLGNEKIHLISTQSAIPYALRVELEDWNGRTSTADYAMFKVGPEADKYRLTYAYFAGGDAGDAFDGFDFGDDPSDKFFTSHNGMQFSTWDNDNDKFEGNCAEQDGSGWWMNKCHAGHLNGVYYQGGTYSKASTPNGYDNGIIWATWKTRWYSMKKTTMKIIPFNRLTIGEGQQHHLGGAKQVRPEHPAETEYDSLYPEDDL
Kind of assay: ELISA binding of pUR4 to ECM proteins: fibrinogen. To be noted: plates coated 10 μg/mL, FIG. 7. As to the method: FIG. 7 is a graph depicting the binding of pUR4 to ECM Proteins. 96-well plates were coated with 10 μg/mL type I collagen (COL), denatured type I collagen (dCOL), fibronectin (FN), laminin (LN), vitronectin (VN), or fibrinogen (FG) at 4° C. overnight. pUR4 was added to the wells and serially diluted. Bound pUR4 was detected as described herein. Measurements were done at 405 nm on a Wallac 1420 multilabel counter. Data represents the average of duplicate determinations, and the error bars the range.
96-well tissue culture plates were coated with 10 μg/mL type I collagen, fibronectin, laminin, fibrinogen, or vitronectin overnight at 4° C. Denatured collagens were generated as described (George et al., “Fibronectins are Essential for Heart and Blood Vessel Morphogenesis but are Dispensable for Initial Specification of Precursor Cells,” Blood 90:3073-3081 (1997), which is hereby incorporated by reference in its entirety). Plates were blocked with 1% bovine serum albumin (BSA) in Tris buffered saline (TBS) for 1 hour, then washed with TBS. pUR4 was serially diluted into coated wells, then incubated at room temperature for 90 min. Wells were washed with TBS containing 0.1% Tween 20. […] After washing, peroxidase activity was quantified by using 2,2′-azino-bis-(3-ethylbenthiazoline-[…]). […]
Background: ELISA stands for enzyme-linked immunosorbent assay.

The subject of assay [1] is fibronectin binding to the cell surface. Kind of assay: Inhibition of fibronectin binding to the cell surface. It counts as cell-based.
A further assay has as its target fibronectin (Homo sapiens, UniProt P02751). To be noted: cited from earlier work.

fibronectin, sequence (P02751 32-2477): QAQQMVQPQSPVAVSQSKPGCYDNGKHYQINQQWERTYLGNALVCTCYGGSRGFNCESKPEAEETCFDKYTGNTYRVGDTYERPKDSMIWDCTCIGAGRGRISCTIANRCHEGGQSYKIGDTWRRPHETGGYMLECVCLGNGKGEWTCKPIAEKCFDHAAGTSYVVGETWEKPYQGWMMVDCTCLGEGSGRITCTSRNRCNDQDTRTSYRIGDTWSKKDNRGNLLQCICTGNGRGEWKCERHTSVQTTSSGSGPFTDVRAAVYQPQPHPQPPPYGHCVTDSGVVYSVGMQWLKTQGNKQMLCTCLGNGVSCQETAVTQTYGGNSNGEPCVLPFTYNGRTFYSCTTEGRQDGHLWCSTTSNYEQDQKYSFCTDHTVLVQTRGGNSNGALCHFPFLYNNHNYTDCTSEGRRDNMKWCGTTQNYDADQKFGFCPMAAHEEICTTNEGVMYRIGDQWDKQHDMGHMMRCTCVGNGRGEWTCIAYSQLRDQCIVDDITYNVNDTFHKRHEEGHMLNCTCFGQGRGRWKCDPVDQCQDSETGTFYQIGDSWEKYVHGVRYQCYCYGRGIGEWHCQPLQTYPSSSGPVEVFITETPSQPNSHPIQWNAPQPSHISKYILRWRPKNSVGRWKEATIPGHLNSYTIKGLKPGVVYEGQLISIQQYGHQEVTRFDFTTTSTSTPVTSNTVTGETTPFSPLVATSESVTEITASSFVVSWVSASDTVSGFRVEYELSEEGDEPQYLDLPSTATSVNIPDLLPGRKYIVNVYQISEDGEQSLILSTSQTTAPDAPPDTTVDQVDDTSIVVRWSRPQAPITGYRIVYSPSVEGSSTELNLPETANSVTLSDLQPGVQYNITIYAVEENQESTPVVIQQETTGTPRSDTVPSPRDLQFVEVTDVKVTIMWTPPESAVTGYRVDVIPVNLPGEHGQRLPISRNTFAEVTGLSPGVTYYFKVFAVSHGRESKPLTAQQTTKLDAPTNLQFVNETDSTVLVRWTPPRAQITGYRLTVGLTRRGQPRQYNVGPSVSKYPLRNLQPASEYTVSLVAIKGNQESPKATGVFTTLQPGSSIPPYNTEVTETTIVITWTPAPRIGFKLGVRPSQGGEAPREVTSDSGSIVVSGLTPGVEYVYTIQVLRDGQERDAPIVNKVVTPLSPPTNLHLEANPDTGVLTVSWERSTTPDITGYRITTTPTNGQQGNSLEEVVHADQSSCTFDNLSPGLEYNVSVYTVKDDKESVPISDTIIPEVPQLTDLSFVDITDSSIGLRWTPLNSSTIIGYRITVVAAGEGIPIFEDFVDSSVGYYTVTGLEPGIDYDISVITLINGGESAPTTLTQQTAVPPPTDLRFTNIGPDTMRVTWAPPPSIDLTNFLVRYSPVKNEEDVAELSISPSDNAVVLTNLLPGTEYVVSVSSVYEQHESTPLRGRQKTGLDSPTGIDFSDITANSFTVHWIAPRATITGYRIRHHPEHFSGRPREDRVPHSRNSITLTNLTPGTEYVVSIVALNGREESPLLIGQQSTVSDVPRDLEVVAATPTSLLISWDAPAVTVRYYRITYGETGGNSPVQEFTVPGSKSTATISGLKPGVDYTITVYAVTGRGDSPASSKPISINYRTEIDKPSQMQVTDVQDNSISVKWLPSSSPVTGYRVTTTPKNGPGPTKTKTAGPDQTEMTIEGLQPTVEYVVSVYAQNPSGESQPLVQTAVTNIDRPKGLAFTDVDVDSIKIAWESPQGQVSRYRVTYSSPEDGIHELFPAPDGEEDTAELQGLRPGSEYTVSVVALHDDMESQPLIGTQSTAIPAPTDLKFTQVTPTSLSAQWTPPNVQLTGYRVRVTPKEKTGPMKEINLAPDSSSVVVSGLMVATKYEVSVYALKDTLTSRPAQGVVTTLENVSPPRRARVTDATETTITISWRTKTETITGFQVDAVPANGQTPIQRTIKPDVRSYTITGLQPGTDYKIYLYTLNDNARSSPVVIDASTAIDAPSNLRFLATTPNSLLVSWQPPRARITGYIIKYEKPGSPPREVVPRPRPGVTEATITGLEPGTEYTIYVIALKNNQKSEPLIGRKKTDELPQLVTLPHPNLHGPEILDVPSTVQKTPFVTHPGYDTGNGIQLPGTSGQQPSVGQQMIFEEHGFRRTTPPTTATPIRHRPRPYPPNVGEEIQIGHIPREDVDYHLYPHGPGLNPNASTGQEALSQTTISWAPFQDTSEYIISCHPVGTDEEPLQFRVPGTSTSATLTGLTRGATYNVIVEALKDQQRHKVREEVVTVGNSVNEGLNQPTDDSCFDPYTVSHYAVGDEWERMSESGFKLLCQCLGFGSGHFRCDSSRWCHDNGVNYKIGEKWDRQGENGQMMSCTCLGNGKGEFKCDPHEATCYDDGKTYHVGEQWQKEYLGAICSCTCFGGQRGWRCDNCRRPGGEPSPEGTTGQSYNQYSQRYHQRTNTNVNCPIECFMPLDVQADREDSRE

B1: pUR4: 49-mer peptide derived from the bacterial F1 adhesin, His tagged, SEQ ID NO:1; class I fibronectin polymerization inhibitor (peptide)
chain: MRGSHHHHHHGSKDQSPLAGESGETEYITEVYGNQQNPVDIDKKLPNETGFSGNMVETEDTKLN
modifications: His tag; Bacterial adhesin derived peptide pUR4
Broadly, the EC50 is the concentration that produces a half-maximal response. Low values mean a more potent agent, high ones a less potent agent. With B1, in the assay on Rat aortic SMCs, the “deposition of endogenous collagen I into matrix fibrils” value is given as “inhibited” and the “deposition of endogenous fibronectin into the ECM” value is listed as “inhibited”. In addition, the binding to fibrinogen entry in the assay with fibrinogen was “does not bind”. Besides, the EC50 in assay [1] was found to be 10 nM. Moreover, the binding to fibronectin entry with fibronectin was “binds”.
